The series deals with Escherichia coli TOP10. Description: shrunken log2 fold change of peptide-encoding DNA abundance (4.5 h post-induction vs induction); higher = less antimicrobial activity (less host growth inhibition). Conditions: time post-induction: 4.5 h; library: site-saturation at positions 5, 18, 19, 20.
As for RRIRLRPPRLPRPRPRPLSWPRP, the “shrunken log2 fold change” value amounted to 0.0186.

In the case of RRIRFRPPRLPRPRPRPTENPRP, the “shrunken log2 fold change” value was -0.115.

As to RRIRERPPRLPRPRPRPGTMPRP, the “shrunken log2 fold change” value worked out at 0.0721.

On to RRIRHRPPRLPRPRPRPQIVPRP, for which the “shrunken log2 fold change” value is -0.238.

RRIRYRPPRLPRPRPRPNEPPRP: the “shrunken log2 fold change” value was 0.00196.

For RRIRNRPPRLPRPRPRPDQFPRP, the “shrunken log2 fold change” value was -0.0466.

RRIRFRPPRLPRPRPRPRTAPRP: the “shrunken log2 fold change” value worked out at 0.162.

RRIRLRPPRLPRPRPRPVRAPRP: the “shrunken log2 fold change” value is 0.687.

As to RRIRSRPPRLPRPRPRPTWKPRP, the “shrunken log2 fold change” value was 0.286.

With RRIRDRPPRLPRPRPRPPAHPRP, the “shrunken log2 fold change” value was 0.56.

As for RRIRSRPPRLPRPRPRPMGPPRP, the “shrunken log2 fold change” value was -0.0846.

For the sequence RRIRQRPPRLPRPRPRPIPTPRP, the “shrunken log2 fold change” value is -0.0272.

Consider RRIRGRPPRLPRPRPRPRDNPRP, for which the “shrunken log2 fold change” value was found to be 0.0439.

For the sequence RRIRLRPPRLPRPRPRPNIHPRP, the “shrunken log2 fold change” value is -0.621.

As for RRIRFRPPRLPRPRPRPVWCPRP, the “shrunken log2 fold change” value was -0.158.

As for RRIRIRPPRLPRPRPRPWKNPRP, the “shrunken log2 fold change” value is -0.235.

In the case of RRIRERPPRLPRPRPRPWQPPRP, the “shrunken log2 fold change” value was 0.0778.

As to RRIRSRPPRLPRPRPRPTGQPRP, the “shrunken log2 fold change” value was found to be 0.31.

Regarding RRIRLRPPRLPRPRPRPKRDPRP, the “shrunken log2 fold change” value is 0.43.

As for RRIRCRPPRLPRPRPRPVKVPRP, the “shrunken log2 fold change” value is -0.181.

In the case of RRIRRRPPRLPRPRPRPHDSPRP, the “shrunken log2 fold change” value is -0.0547.

RRIRYRPPRLPRPRPRPQDPPRP: the “shrunken log2 fold change” value was -0.0639.

For the sequence RRIRCRPPRLPRPRPRPADSPRP, the “shrunken log2 fold change” value is -0.0251.

Take RRIRLRPPRLPRPRPRPQIVPRP: the “shrunken log2 fold change” value was -0.0529.

On to RRIRHRPPRLPRPRPRPIKLPRP, for which the “shrunken log2 fold change” value is -0.118.

For RRIRSRPPRLPRPRPRPPINPRP, the “shrunken log2 fold change” value is -0.32.

In the case of RRIRERPPRLPRPRPRPNCRPRP, the “shrunken log2 fold change” value is -0.238.

As for RRIRQRPPRLPRPRPRPTRVPRP, the “shrunken log2 fold change” value was found to be 0.305.

Turning to RRIRNRPPRLPRPRPRPQPFPRP, the “shrunken log2 fold change” value is -0.0278.

For RRIRTRPPRLPRPRPRPRDVPRP, the “shrunken log2 fold change” value amounted to 0.369.

With RRIRSRPPRLPRPRPRPFPRPRP, the “shrunken log2 fold change” value is 0.356.

Turning to RRIRMRPPRLPRPRPRPVHEPRP, the “shrunken log2 fold change” value was -0.232.

Consider RRIRMRPPRLPRPRPRPAIQPRP, for which the “shrunken log2 fold change” value was -0.00069.

In the case of RRIRMRPPRLPRPRPRPHQDPRP, the “shrunken log2 fold change” value was -0.117.

Regarding RRIRQRPPRLPRPRPRPFANPRP, the “shrunken log2 fold change” value is 0.0297.

For RRIRCRPPRLPRPRPRPCTTPRP, the “shrunken log2 fold change” value was -0.427.

As to RRIRQRPPRLPRPRPRPMMCPRP, the “shrunken log2 fold change” value is -0.0115.

On to RRIRWRPPRLPRPRPRPFPDPRP, for which the “shrunken log2 fold change” value turned out to be 0.116.

With RRIRHRPPRLPRPRPRPWASPRP, the “shrunken log2 fold change” value is -0.0831.

Take RRIRARPPRLPRPRPRPGPAPRP: the “shrunken log2 fold change” value was found to be 0.873.

For RRIRFRPPRLPRPRPRPDSEPRP, the “shrunken log2 fold change” value was determined as 0.104.

As for RRIRDRPPRLPRPRPRPQKDPRP, the “shrunken log2 fold change” value is -0.294.

With RRIRWRPPRLPRPRPRPGQNPRP, the “shrunken log2 fold change” value turned out to be 0.134.

RRIRSRPPRLPRPRPRPWYAPRP: the “shrunken log2 fold change” value is -0.253.

RRIRDRPPRLPRPRPRPEMQPRP: the “shrunken log2 fold change” value is -0.0247.

For RRIRLRPPRLPRPRPRPHASPRP, the “shrunken log2 fold change” value was -0.046.

Consider RRIRARPPRLPRPRPRPNVTPRP, for which the “shrunken log2 fold change” value amounted to 0.17.

As to RRIRNRPPRLPRPRPRPPENPRP, the “shrunken log2 fold change” value stood at 0.181.

Regarding RRIRQRPPRLPRPRPRPHWWPRP, the “shrunken log2 fold change” value was determined as 0.38.

As to RRIRCRPPRLPRPRPRPYSDPRP, the “shrunken log2 fold change” value was -0.0426.

With RRIRRRPPRLPRPRPRPEMSPRP, the “shrunken log2 fold change” value was 0.0923.

On to RRIRYRPPRLPRPRPRPCFIPRP, for which the “shrunken log2 fold change” value is -0.321.

As to RRIRKRPPRLPRPRPRPSDWPRP, the “shrunken log2 fold change” value was determined as 0.288.

For the sequence RRIRTRPPRLPRPRPRPDCAPRP, the “shrunken log2 fold change” value amounted to 0.719.

As for RRIRMRPPRLPRPRPRPNRHPRP, the “shrunken log2 fold change” value was 0.0213.

Turning to RRIRHRPPRLPRPRPRPKVVPRP, the “shrunken log2 fold change” value was -0.00398.

For the sequence RRIRCRPPRLPRPRPRPSMPPRP, the “shrunken log2 fold change” value was -0.558.

Turning to RRIRFRPPRLPRPRPRPLFIPRP, the “shrunken log2 fold change” value is -0.652.

On to RRIRKRPPRLPRPRPRPKIPPRP, for which the “shrunken log2 fold change” value came out at 0.174.

On to RRIRGRPPRLPRPRPRPFKAPRP, for which the “shrunken log2 fold change” value is 0.2.

With RRIRNRPPRLPRPRPRPDYVPRP, the “shrunken log2 fold change” value is -0.296.

As to RRIRYRPPRLPRPRPRPKQCPRP, the “shrunken log2 fold change” value was -0.17.

Turning to RRIRSRPPRLPRPRPRPFDHPRP, the “shrunken log2 fold change” value was -0.488.

On to RRIRPRPPRLPRPRPRPAHSPRP, for which the “shrunken log2 fold change” value was -0.00917.

On to RRIRCRPPRLPRPRPRPWNGPRP, for which the “shrunken log2 fold change” value was -0.0552.

Take RRIRDRPPRLPRPRPRPNHGPRP: the “shrunken log2 fold change” value turned out to be 1.15.

For the sequence RRIRYRPPRLPRPRPRPRWTPRP, the “shrunken log2 fold change” value came out at 0.2.

With RRIRHRPPRLPRPRPRPSYHPRP, the “shrunken log2 fold change” value is -1.11.

For RRIRARPPRLPRPRPRPALLPRP, the “shrunken log2 fold change” value was 0.718.

Consider RRIRGRPPRLPRPRPRPHNDPRP, for which the “shrunken log2 fold change” value is 0.0426.

Regarding RRIRHRPPRLPRPRPRPNKWPRP, the “shrunken log2 fold change” value is -0.0964.

RRIRLRPPRLPRPRPRPYAPPRP: the “shrunken log2 fold change” value is -0.329.

On to RRIRPRPPRLPRPRPRPENIPRP, for which the “shrunken log2 fold change” value is -0.102.

Take RRIRGRPPRLPRPRPRPPILPRP: the “shrunken log2 fold change” value was -0.0529.

For RRIRIRPPRLPRPRPRPPDEPRP, the “shrunken log2 fold change” value was -0.0174.

In the case of RRIRARPPRLPRPRPRPQIDPRP, the “shrunken log2 fold change” value stood at 0.427.

RRIRQRPPRLPRPRPRPNKYPRP: the “shrunken log2 fold change” value is -0.686.

Take RRIRIRPPRLPRPRPRPDWTPRP: the “shrunken log2 fold change” value worked out at 0.0313.

With RRIRVRPPRLPRPRPRPNAEPRP, the “shrunken log2 fold change” value was 0.0611.

In the case of RRIRLRPPRLPRPRPRPIWWPRP, the “shrunken log2 fold change” value worked out at 0.94.

For RRIRFRPPRLPRPRPRPIKCPRP, the “shrunken log2 fold change” value was -0.229.

RRIRTRPPRLPRPRPRPILCPRP: the “shrunken log2 fold change” value was -0.0876.

With RRIRDRPPRLPRPRPRPPKWPRP, the “shrunken log2 fold change” value came out at 0.27.

For the sequence RRIRCRPPRLPRPRPRPSHVPRP, the “shrunken log2 fold change” value was -0.387.

With RRIRFRPPRLPRPRPRPSFIPRP, the “shrunken log2 fold change” value was -0.831.

Take RRIRDRPPRLPRPRPRPAGCPRP: the “shrunken log2 fold change” value is 0.738.

In the case of RRIRGRPPRLPRPRPRPETPPRP, the “shrunken log2 fold change” value is 3.43.

As to RRIRDRPPRLPRPRPRPHLPPRP, the “shrunken log2 fold change” value is -0.0459.

As for RRIRCRPPRLPRPRPRPSGLPRP, the “shrunken log2 fold change” value is 0.0264.

In the case of RRIRNRPPRLPRPRPRPVNVPRP, the “shrunken log2 fold change” value was -0.304.

Turning to RRIRMRPPRLPRPRPRPCCAPRP, the “shrunken log2 fold change” value turned out to be 0.78.

Take RRIRVRPPRLPRPRPRPLCPPRP: the “shrunken log2 fold change” value was -0.153.

On to RRIRKRPPRLPRPRPRPRPRPRP, for which the “shrunken log2 fold change” value was 1.01.

Regarding RRIRYRPPRLPRPRPRPDITPRP, the “shrunken log2 fold change” value is -0.385.

As to RRIRERPPRLPRPRPRPIGYPRP, the “shrunken log2 fold change” value is -0.00962.

Turning to RRIRSRPPRLPRPRPRPYIPPRP, the “shrunken log2 fold change” value was -1.28.

For the sequence RRIRWRPPRLPRPRPRPHQTPRP, the “shrunken log2 fold change” value was 0.0649.

On to RRIRMRPPRLPRPRPRPLWIPRP, for which the “shrunken log2 fold change” value was -0.00647.

As to RRIRSRPPRLPRPRPRPTILPRP, the “shrunken log2 fold change” value was -0.413.

For RRIRQRPPRLPRPRPRPLALPRP, the “shrunken log2 fold change” value came out at 0.318.

As for RRIRMRPPRLPRPRPRPRPCPRP, the “shrunken log2 fold change” value stood at 0.586.

On to RRIRQRPPRLPRPRPRPHDAPRP, for which the “shrunken log2 fold change” value is -0.0149.

As to RRIRDRPPRLPRPRPRPTKPPRP, the “shrunken log2 fold change” value was -0.23.

Consider RRIRERPPRLPRPRPRPNRWPRP, for which the “shrunken log2 fold change” value stood at 0.0283.

As for RRIRTRPPRLPRPRPRPSLLPRP, the “shrunken log2 fold change” value was -0.0532.

As to RRIRIRPPRLPRPRPRPSNGPRP, the “shrunken log2 fold change” value stood at 0.0107.

For the sequence RRIRHRPPRLPRPRPRPTPSPRP, the “shrunken log2 fold change” value is 0.276.

On to RRIRRRPPRLPRPRPRPEWHPRP, for which the “shrunken log2 fold change” value was -0.107.

Consider RRIRERPPRLPRPRPRPVFKPRP, for which the “shrunken log2 fold change” value was -0.228.

RRIRFRPPRLPRPRPRPVVNPRP: the “shrunken log2 fold change” value is -0.026.

As for RRIRYRPPRLPRPRPRPQAGPRP, the “shrunken log2 fold change” value was 0.00284.

RRIRDRPPRLPRPRPRPVCPPRP: the “shrunken log2 fold change” value was -0.153.

In the case of RRIRARPPRLPRPRPRPQMLPRP, the “shrunken log2 fold change” value came to 1.97.

For the sequence RRIRKRPPRLPRPRPRPRMCPRP, the “shrunken log2 fold change” value was -0.211.

For the sequence RRIRGRPPRLPRPRPRPGADPRP, the “shrunken log2 fold change” value was determined as 1.48.

On to RRIRIRPPRLPRPRPRPFSLPRP, for which the “shrunken log2 fold change” value was -1.26.

For the sequence RRIRRRPPRLPRPRPRPETWPRP, the “shrunken log2 fold change” value worked out at 0.234.

Consider RRIRVRPPRLPRPRPRPSFCPRP, for which the “shrunken log2 fold change” value was 0.212.

Consider RRIRERPPRLPRPRPRPKHLPRP, for which the “shrunken log2 fold change” value was -0.202.

In the case of RRIRQRPPRLPRPRPRPLDCPRP, the “shrunken log2 fold change” value was -0.221.

In the case of RRIRTRPPRLPRPRPRPNVFPRP, the “shrunken log2 fold change” value worked out at 0.0305.

Take RRIRMRPPRLPRPRPRPDYLPRP: the “shrunken log2 fold change” value was -0.051.

Consider RRIRARPPRLPRPRPRPYHVPRP, for which the “shrunken log2 fold change” value was -0.963.

Take RRIRVRPPRLPRPRPRPWNSPRP: the “shrunken log2 fold change” value is -0.106.

As for RRIRNRPPRLPRPRPRPDHWPRP, the “shrunken log2 fold change” value came out at 0.0703.

For the origin of these results see the supplement of paper PMC9112550, “Optimization of the antimicrobial peptide Bac7 by deep mutational scanning” (BMC Biology, 2022).
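Also: peptides expressed intracellularly from a pBAD plasmid library in pooled LB shake-flask culture, induced with 0.3% L-arabinose, DNA abundance read by NGS, three biological replicates, DESeq2 with apeglm shrinkage.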
